Paper PMC8729806, “Chaperones mainly suppress primary nucleation during formation of functional amyloid required for bacterial biofilm formation†” (Chemical Science, 2021)
Blank lines part the entries; values can stand above or below the molecule they belong to.

Columns and labels:
[1] = target: Full-length FapC (residues 25-250) from Pseudomonas sp. UK4, without its signal sequence (Pseudomonas sp. UK4)
[2] = target: CsgA from E. coli (residues 21-151), without its signal sequence (E. coli) (UniProt P28307)
Sequence of CsgA from E. coli (residues 21-151), without its signal sequence (E. coli) (P28307 21-151): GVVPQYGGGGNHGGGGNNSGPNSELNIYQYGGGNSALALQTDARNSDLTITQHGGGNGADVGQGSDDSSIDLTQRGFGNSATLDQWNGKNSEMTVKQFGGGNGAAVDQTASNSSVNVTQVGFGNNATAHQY

[3] = target: CsgA from E. coli (residues 21-151), without its signal sequence (E. coli, UniProt P28307 21-151); test: cell-based or functional assay
Sequence of CsgA from E. coli (residues 21-151), without its signal sequence (P28307 21-151): as above

Sequence of Full-length FapC (residues 25-250) from Pseudomonas sp. UK4, without its signal sequence (Pseudomonas sp. UK4) (P0DXF5 25-250 limits assumed): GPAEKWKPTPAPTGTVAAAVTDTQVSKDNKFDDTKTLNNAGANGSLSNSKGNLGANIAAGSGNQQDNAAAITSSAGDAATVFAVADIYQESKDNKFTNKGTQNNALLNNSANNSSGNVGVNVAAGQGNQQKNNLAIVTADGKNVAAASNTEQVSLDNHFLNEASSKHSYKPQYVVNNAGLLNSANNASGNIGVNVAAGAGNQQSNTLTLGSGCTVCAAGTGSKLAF

Molecule: Bri2 BRICHOS monomer (M-Bri2) (domain or fragment)
fold reduction of the primary nucleation rate constant kn of spontaneous FapC fibrillation (ThT kinetics, Amylofit), by 6 μM Bri2 monomer (fold reduction) [1]: 40
fold reduction of the primary nucleation rate constant kn of spontaneous CsgA fibrillation (ThT kinetics, Amylofit), by 1 μM Bri2 monomer (fold reduction) [2]: 1000

Molecule: DNAJB6 mutant F91L, used as pseudowildtype (from UniProt O75190 1-326) (natural protein)
fold reduction of the primary nucleation rate constant kn of spontaneous FapC fibrillation (ThT kinetics, Amylofit), by 0.6 μM DNAJB6 (fold reduction) [1]: 1000
fold reduction of the primary nucleation rate constant kn of spontaneous CsgA fibrillation (ThT kinetics, Amylofit), by 0.12 μM DNAJB6 (fold reduction) [2]: 1e+07

Other lines, results leading:

fold reduction of the primary nucleation rate constant kn of spontaneous FapC fibrillation (ThT kinetics, Amylofit), by 6 μM Bri2 oligomer (fold reduction) [1]: 10
fold reduction of the primary nucleation rate constant kn of spontaneous CsgA fibrillation (ThT kinetics, Amylofit), by 1 μM Bri2 oligomer (fold reduction) [2]: 100000
Molecule: Bri2 BRICHOS oligomer (O-Bri2) (from UniProt Q9Y287 137-231) (domain or fragment)

fold reduction of the primary nucleation rate constant kn of spontaneous CsgA fibrillation (ThT kinetics, Amylofit), by 1 μM CsgC [3]: ~100000 fold reduction
B1: CsgC (natural protein, UniProt P52107 9-110, looked up)
chain: ALSSQITFNTTQQGDVYTIIPEVTLTQSCLCRVQILSLREGSSGQSQTKQEKTLSLPANQPIALTKLSLNISPDDRVKIVVTVSDGQSLHLSQQWPPSSEKS
modifications: Alexa Fluor 546 label (peptide array only)

fold reduction of the primary nucleation rate constant kn of spontaneous FapC fibrillation (ThT kinetics, Amylofit), at 50 μM S100A9 (fold reduction) [1]: 6
fold reduction of the primary nucleation rate constant kn of spontaneous CsgA fibrillation (ThT kinetics, Amylofit), at 4 μM S100A9 [3]: 20 fold reduction
B2: S100A9 (natural protein, human, UniProt P06702 1-114, looked up)
chain: MTCKMSQLERNIETIINTFHQYSVKLGHPDTLNQGEFKELVRKDLQNFLKKENKNEKVIEHIMEDLDTNADKQLSFEEFIMLMARLTWASHEKMHEGDEGPGHHHKPGLGEGTP
modifications: Alexa Fluor 546 label (peptide array only)
